Measured values from paper PMC4222117.

Target: Aβ extracted from AD brain (human (endogenous in AD brain))
Experiment: immunoprecipitation and SDS-PAGE Western blot

For Aβ extracted from AD brain (peptide), which stoichiometry N is on record?
Its stoichiometry N is 2.
